Measurements published in the DeepSol protein solubility set.

Experiment: soluble on expression in E. coli; label from the status in PepcDB or PDB records

Sequence	soluble on expression in E. coli
MSLSISEKPLSELLRPKDFEDFVGQDHIFGNKGILRRTLKTGNMFSSILYGPPGSGKTSVFSLLKRYFNGEVVYLSSTVHGVSEIKNVLKRGEQLRKYGKKLLLFLDEIHRLNKNQQMVLVSHVERGDIVLVATTTENPSFVIVPALLSRCRILYFKKLSDEDLMKILKKATEVLNIDLEESVEKAIVRHSEGDARKLLNTLEIVHQAFKNKRVTLEDLETLLGNVSGYTKESHYDFASAFIKSMRGSDPNAAVYYLVKMIEMGEDPRFIARRMIIFASEDVGLADPNALHIAVSTSIAVEHVGLPECLMNLVECAVYLSLAPKSNSVYLAMKEGHHHHHH	not soluble
MEEHPRAWIISVGNELLIGRTINTNAAWLGSRLTLLGFEVERVVTVPDRVEDIAEEVGRALGRARVVITTGGLGPTYDDVTLQGVAMALGRGLKLHPGALEMVRRFYSKRGLGLTEDRVKMAMLPDGAEPLENPVGAAPGAVVEARGSLVASLPGVPSEMEAMFEKALRPLLEEIAPPGAVVECGIAVVGVPESSLAPYIKEASRVSPRVYVKSHPQGSEIGKPLVRVRVLARASTLEEARAEALKALEKVRRGVEELGGSISEEDSC	soluble
MSLKNVLITGANSYIGLSFKNWLAKEPEKYKVDSISLRGDLWKEKDFSQYDVLLHAAGIAHIKETKENKELYFKVNRDVAYEAAKKAKDEGIKQFIFLSSMSVYGKENGIIDLDTLPKPTSNYGESKLQAEKLIEMLDDDSFKVVTIRPPMIYGKGCKGNYPKLAKLARKLPVFPDVENERSMIHIENLCEFMKLIIDNNDAGLFLPQNDDFVKTSEMVRLIGETNGKRIKLTKFFNPVLNLFIGKIGVVNKVFGNLKYKKEISNYKDNYIINNFAESIRRTEEGHHHHHH	soluble
MTLLGIKLKQTQQLNQRLQQSLRVLQMSGIELEREVENWLSDNPLLERKDTDEFSDAEFSHYTAPARQIGGDEGEDMLSNIAGEQDFKQYLHAQVCEHPLSDQEAACVHILIDFLDEQGYLTDSIEDILDHTPLEWMLDEAMLQHALTALKKFDPAGVAAADLNESLILQIERLGECAAKPAALHIVRNALDSIDGNRSQTLARIKKHLPQTDSGTLEAALDLIASLNPFPAAGFASSTPTPYSDEALANLLAFRGMEVSRRTIAKYRESFEIPAAHKRKTAE	not soluble
MGSDKIHHHHHHMVSLLRRTFSEEIKEELVNVPFGSREEVISELLGFIKARGDLDVKSRHIVFSLHSFAASRRLLNLMKYLSKPVSEIIVEKSHNIKKRYIKITAEYSESFMVIEPFFDVALFVSFLRGLFLSGGSMTNPRYHYHLEINLFEEETLALTRKSLKDFFNINAGIIELRNTRKLYIKSIKDILVFLEAIGVQRKLEEIDRIVTERKVIGDVNRTVNFIEANAIRTANSTARQIRAIELIKENMGLENLPEDLRRVALVRLRNKELSLRELGKKLNLTKSQIYSKLKRIIKIAERFGDVK	not soluble
MMDAKALWQRYQDWLYYHEGLGLYLDISRMRFDDSFVESLQSKFDKAFADMAALEKGAIANPDENRMVGHYWLRNPDLAPSPELTQEIVQTLEQIEAFADQVHTGAVHPPKESRFTDIISIGIGGSALGPQFVAEALSPDSPPLNIHFIDNTDPRGIDRVLSQINNLASTLVLVISKSGGTPEPRNGMIEVKKAYAAKNLDFSKYAVAVTGPDSNLDKVAKSEGWLARFSMYDWVGGRTSEMSAVGLVPAALQGIDIRAMLEGAKEMDDATRVADLKNNPAALLALAWYYSGKGKGGKDMVVLPYKDSLLLFSRYLQQLVMESLGKEKDLDGKIVYQGIAVYGNKGSTDQHAYVQQLREGVPNFFATLIEVLEDRQRKSPEIDPGVTSGDYLCGFLLGTRQALYENNRDSITVTIHQVNPRTVGALIALYERAVGLYASLVNINAYHQPGVEAGKKAAAVILDLQQKVMTVLQTERKALSISEIADKAGASEQIEAIYKILRHLHTNNRGVVLTGDLAKPGSLTVSLS	not soluble
GMHSAALLQKVDELPRLPKAIAELLDVVNNEDSTVKAVSEKLSHDPVLSARVLRLANSARFGCSREVGTIDDAVVRLGMQTLRTLVIASAVVGAVPKVEGFDLADFWGNTFEVAIICQELAKRLGTLPEEAFTCGILHSIGELLIVNGDPAVAATISAAVADGADRNLMEKELLGYDNAEIGALLAQSWKFTPHLVKGIQFQNHPKSAEPYSKLAGMLAMAKQIAADWDKIPDDERTSWLAQINILAGIKVDLGGLAEKLAKMHGQGMEMGKQLA	soluble
MSLNPSESRSIAALREIVESARPLSYIRSSEEQRVERLLKDAAQRFFSTKVPVWTWSLTEGLRCDDGAVDASASDPRAALDFIAAYQGPALFHLKDFHEPLRERADIRRRLRDLYGACFDQGKFVVISSPVRYIPEELGRSIMYIELTLPDLAELIGFLREEVHAVKALGGSADTDDATLTQIARALQGLTLDESRHAIRRALAAGGGLGADSLPALYEEKRLLVNRTGMIQYVADGTQIASVGGLEIMKKWLMERRELFQLRDSISAEIVPKGVLIMGVSGCGKSLSVKAIASAFGLPLYRIDMTEIFSGRHGSAEGAFVSACRMLEQIAPAVVWFDEIEMGVNSTESAGEQGRIFAFFLTWMQEKTSGLFVAATANRIDLLPAEMTRKGRFDEIFFVDLPLDDERVEIFRIHLERRGIDTTPFDLTRLIKITKGWVGAEVEQCVVSALTTAHLDNREVTVEDLLRAAGKIVPLSKTMKEQVDHIRSWAYNRAVRASEGHHHHHH	soluble
DIVLTQSPTTMAASPGEKITITCSASSSISSNYLHWYQQKPGFSPKLLIYRTSNLASGVPARFSGSGSGTSYSLTIGTMEAEDVATYYCQQGSSIPLTFGAGTKLELKRADAAPTVSIFPPSSEQLTSGGASVVCFLNNFYPKDINVKWKIDGSERQNGVLNSWTDQDSKDSTYSMSSTLTLTKDEYERHNSYTCEATHKTSTSPIVKSFNRNEC	soluble
MDTHKVFVNRIINMRKIKLIGLDMDHTLIRYNSKNFESLVYDLVKERLAESFHYPEEIKKFKFNFDDAIRGLVIDSKNGNILKLSRYGAIRLSYHGTKQISFSDQKKIYRSIYVDLGDPNYMAIDTSFSIAFCILYGQLVDLKDTNPDKMPSYQAIAQDVQYCVDKVHSDGTLKNIIIKNLKKYVIREKEVVEGLKHFIRYGKKIFILTNSEYSYSKLLLDYALSPFLDKGEHWQGLFEFVITLANKPRFFYDNLRFLSVNPENGTMTNVHGPIVPGVYQGGNAKKFTEDLGVGGDEILYIGDHIYGDILRLKKDCNWRTALVVEELGEEIASQIRALPIEKKIGEAMAIKKELEQKYVDLCTRSIDESSQQYDQEIHDLQLQISTVDLQISRLLQEQNSFYNPKWERVFRAGAEESYFAYQVDRFACIYMEKLSDLLEHSPMTYFRANRRLLAHDIDIAAALEHHHHHH	soluble
MGRIKRGLDYFPMSTSFMHDRMVRRIMRREGDSAFATLVETLSYIYAGKGYYISVGDEFYEELVDSLYSTELDDVKRIISLSVEYGLFDAGLFRQYNILTSADIQRQYLFITKRRSSALIEPDYCLLESEEITSYRSSQSGKSSTDDSLDSECAEALNGDADHKTACTVTSSFDSVTMEDEIATSGTQNKRKQIKINQNKVNHLPNPPQGGDEGGKYLKSRTAVTQEDIDCLQPPCDGVQRNFQGLTDNLRLYKVPPSEQYAIILKSNFGAIGNPVWKGFNTIRGSNGKIRLPGHYLLSIIN	not soluble
MGSDKIHHHHHHMFQRAFLLYNGKAGNGKTDKYLKDVVPRALQSIGELTIIPSKEKGDIESICREREVDLIIVMGGDGTVHECINGLAVSPSPPPLVVLPTGTCNDFARSLRIPLSFVEAGNLLESGTWKRVPLIQANHRCYTNFLGMGIITTASEGTNPELKETFGRFSYFLSALQSLREPSPFSYTITSTKGSMSGQAILLLVMHGQFLGTLPVQLDENAIEQPFVTIYIVKEGGLPFIKDLVKGLVSPAMVNESDHIDRMTCDQCQIETEPVLSIDMDGEIYMKTPVNITTVGKVITVRVPDVNVTSDADHTIGGAQDTP	not soluble
YMYKKYDILKGDKSERVLDRRFITNLCMNGVPMGLQYSITAIGSTILQAAVNTLGSTYVAAMTAGSKMFNFTCCPFDALGSTMATYAGQNVGAAKIKRLGQGVR	not soluble
